Measured values from EP4722246A1, “TEM8-TARGETED ANTIBODY OR ANTIGEN-BINDING FRAGMENT THEREOF, AND USE THEREOF” (Inxmed (Nanjing) Co., Ltd., priority 2023, dated 2024).

B1: phage clone 6A6 (scFv on phage) (scFv, V domains shown)
VH: EVQLVESGGGVVQPGGSLRLSCAASGFTFDDYAMHWVRQAPGKGLEWVSLISGDGGSTYYADSVKGRFTISRDNSKNSLYLQMNSLKASDTAMYYCARPRWGRYSSSWPFDYWGQGTLVTVSS
VL: QSALTQPASVSGSPGQSITISCTGTSSDVGTYNYVSWYQQHPGKAPKLMIYDVTDRPSGISNRFSGSKSGNTASLTISGLQAEDEGNYYCSSYTSNRSWVFGGGTKLTVL
B2: phage clone 11B7 (scFv on phage) (scFv, V domains shown)
VH: QVQLVQSGGGVVQPGRPLRLSCAASGFNLGSYAMSWVRQAPGKGLEWVSAISGSGGSTYYADSVKGRFTISRDNSKNTLYLQMNSLRAEDTAVYYCAKILGPGNLNYYYYYGMDVWGQGTTVTVSS
VL: SSELTQDPAVSVALGQTVRITCQGDSLRNSYASWYQQKPGQAPVLVIYGNNNRPSGIPDRVSGSRSGNTASLTITGAQAEDEADYYCNSRDSSGNHVVFGGGTELTVL
B3: phage clone 3B3 (scFv on phage) (scFv, V domains shown)
VH: EVQLVQSGGGLVKPGGSLRLSCAASGFTFSSYSMNWVRQAPGKGLEWVSSISSSSSYIYYADSVKGRFTISRDNAKNSLYLQMNSLRAEDTAVYYCARVRPPYGMDVWGQGTLVTVSS
VL: NIQMTQSPSSVSASVGDTVTISCRASQGISNWLGWYQQRPGEAPKLLIYAASHLQSGVPSRFSGSGSGTDFVLTITSLQPEDFATYYCQQSNSFPLAFGGGTKLEIK
B4: phage clone 7E3 (scFv on phage) (scFv, V domains shown)
VH: QVQLVESGGGLVNPGGSLRLSCAVSGFTSSGFSINWVRQAPGKGLEWVSSISGIGDSIFYADSVKGRFTISRDNAKNLVFLQMNSVKAEDTAVYYCVRDKWGWGTYSLFDYWGQGTLVTVSS
VL: QAVLTQPPSASGTPGQRVTISCSGSSSNIASNVVSWYQQLPGTAPKVLIYSNNRRPSGVPDRFSGSKSGASASLAISGLQSDDETHYYCAAWDDSLKGPVFGGGTQLTVL

target: hTEM8-his antigen (hTEM8 containing 6 His tags) (human) (UniProt Q9H6X2); assay: phage supernatant ELISA on hTEM8-his
Sequence (Q9H6X2 33-321 limits assumed): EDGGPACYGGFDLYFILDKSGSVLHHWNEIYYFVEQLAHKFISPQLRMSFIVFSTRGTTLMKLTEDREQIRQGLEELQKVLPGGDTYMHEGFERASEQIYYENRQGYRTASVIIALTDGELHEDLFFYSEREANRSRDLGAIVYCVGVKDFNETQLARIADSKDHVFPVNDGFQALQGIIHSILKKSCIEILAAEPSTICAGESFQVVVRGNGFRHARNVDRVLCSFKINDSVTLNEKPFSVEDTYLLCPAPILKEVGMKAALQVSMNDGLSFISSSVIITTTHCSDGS

Compared with B1, B2 is lower in hTEM8-his ELISA (OD450): 2.67 OD450 for the first, 2.43 OD450 for the second.

Going from B3 to B4, the hTEM8-his ELISA (OD450) falls from 2.86 OD450 to 2.5 OD450.
